Assay results as given in patent publication US20220204580A1 (AstraZeneca / MedImmune, published 2022).
Numbered stars: 1 amine (or outer) side, 2 acyl side, 3 side chain; on linkers, the order of the positions; unused ones are H or OH. Bridge positions count the residues as written; N and C are the ends. Square brackets hold non-standard residues; d marks the D form. Side chains are listed from the residue outwards. Ends that are not written are not given here. * marks the point of attachment. C18 diacid = O=C(O)CCCCCCCCCCCCCCCCC(=O)*; γGlu = O=C(O)[C@H](CCC(=O)[*:2])N[*:1]; Aib = CC(C)(N)C(=O)O

T1: human calcitonin receptor (human, UniProt P30988 25-474)
T1 sequence (looked up): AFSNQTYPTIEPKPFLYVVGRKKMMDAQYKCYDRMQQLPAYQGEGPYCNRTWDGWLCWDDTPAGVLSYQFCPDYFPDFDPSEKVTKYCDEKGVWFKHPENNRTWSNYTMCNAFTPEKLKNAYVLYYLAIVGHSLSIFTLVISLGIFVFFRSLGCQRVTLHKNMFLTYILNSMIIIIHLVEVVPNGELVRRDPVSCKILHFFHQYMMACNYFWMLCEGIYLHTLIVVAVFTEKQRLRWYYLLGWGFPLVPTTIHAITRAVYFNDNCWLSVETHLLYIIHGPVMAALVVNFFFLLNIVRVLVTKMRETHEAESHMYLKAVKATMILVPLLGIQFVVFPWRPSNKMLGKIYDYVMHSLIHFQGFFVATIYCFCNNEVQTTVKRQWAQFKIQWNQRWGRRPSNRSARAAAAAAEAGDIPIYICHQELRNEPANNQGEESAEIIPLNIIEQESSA

T2: human amylin receptor (calcitonin receptor co-expressed with receptor activity modifying protein, RAMP3) (human, UniProt P30988 25-474; O60896 24-148)
T2 sequence (looked up) 1: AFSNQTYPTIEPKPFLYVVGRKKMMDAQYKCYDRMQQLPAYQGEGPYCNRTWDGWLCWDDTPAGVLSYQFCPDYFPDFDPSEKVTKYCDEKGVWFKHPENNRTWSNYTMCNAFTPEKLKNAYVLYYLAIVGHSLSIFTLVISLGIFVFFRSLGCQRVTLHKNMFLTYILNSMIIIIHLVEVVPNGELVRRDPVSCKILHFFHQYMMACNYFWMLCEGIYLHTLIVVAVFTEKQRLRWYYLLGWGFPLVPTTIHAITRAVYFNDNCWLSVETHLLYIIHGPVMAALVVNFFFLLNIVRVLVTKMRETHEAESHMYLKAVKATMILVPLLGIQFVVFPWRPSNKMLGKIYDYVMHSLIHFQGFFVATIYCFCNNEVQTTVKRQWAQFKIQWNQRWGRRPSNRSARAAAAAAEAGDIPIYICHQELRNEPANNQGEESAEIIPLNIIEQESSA
T2 sequence (looked up) 2: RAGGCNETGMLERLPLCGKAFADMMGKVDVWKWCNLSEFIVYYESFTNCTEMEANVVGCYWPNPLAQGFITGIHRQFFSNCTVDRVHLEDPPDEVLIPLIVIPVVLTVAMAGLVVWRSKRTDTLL


Experiments:
[1] = molecular target: T1, human calcitonin receptor; assay: cell-based or functional assay
[2] = molecular target: T2, human amylin receptor (calcitonin …); assay: cell-based or functional assay

| Binder | EC50 (cAMP production) [1] [nM] | EC50 (cAMP production) [2] [nM] | Ratio (EC50 hCTR / EC50 hAMYR3) [2] |
| --- | --- | --- | --- |
| K([γGlu-C18 diacid])KCNTATCATQRLANFL[Aib]HSSNNFGPILPPTNVGHNTY-NH2 (disulfide 3-8; N-terminus assumed; SMILES CC[C@H](C)[C@H](NC(=O)[C@@H]1CCCN1C(=O)CNC(=O)[C@H](Cc1ccccc1)NC(=O)[C@H](CC(N)=O)NC(=O)[C@H](CC(N)=O)NC(=O)[C@H](CO)NC(=O)[C@H](CO)NC(=O)[C@H](Cc1c[nH]cn1)NC(=O)C(C)(C)NC(=O)[C@H](CC(C)C)NC(=O)[C@H](Cc1ccccc1)NC(=O)[C@H](CC(N)=O)NC(=O)[C@H](C)NC(=O)[C@H](CC(C)C)NC(=O)[C@H](CCCNC(=N)N)NC(=O)[C@H](CCC(N)=O)NC(=O)[C@@H](NC(=O)[C@H](C)NC(=O)[C@@H]1CSSC[C@H](NC(=O)[C@H](CCCCN)NC(=O)[C@@H](N)CCCCNC(=O)CC[C@H](NC(=O)CCCCCCCCCCCCCCCCC(=O)O)C(=O)O)C(=O)N[C@@H](CC(N)=O)C(=O)N[C@@H]([C@@H](C)O)C(=O)N[C@@H](C)C(=O)N[C@@H]([C@@H](C)O)C(=O)N1)[C@@H](C)O)C(=O)N[C@@H](CC(C)C)C(=O)N1CCC[C@H]1C(=O)N1CCC[C@H]1C(=O)N[C@H](C(=O)N[C@@H](CC(N)=O)C(=O)N[C@H](C(=O)NCC(=O)N[C@@H](Cc1c[nH]cn1)C(=O)N[C@@H](CC(N)=O)C(=O)N[C@H](C(=O)N[C@@H](Cc1ccc(O)cc1)C(N)=O)[C@@H](C)O)C(C)C)[C@@H](C)O) [Peptide 145 (SEQ ID NO: 145)] | 1.88 | 0.417 | 4.5 |
| K([γGlu-C18 diacid])KCNTATCATQRLANFL[Aib]HSSNNFGPILPPTNVGSRTY-NH2 (disulfide 3-8; N-terminus assumed; SMILES CC[C@H](C)[C@H](NC(=O)[C@@H]1CCCN1C(=O)CNC(=O)[C@H](Cc1ccccc1)NC(=O)[C@H](CC(N)=O)NC(=O)[C@H](CC(N)=O)NC(=O)[C@H](CO)NC(=O)[C@H](CO)NC(=O)[C@H](Cc1c[nH]cn1)NC(=O)C(C)(C)NC(=O)[C@H](CC(C)C)NC(=O)[C@H](Cc1ccccc1)NC(=O)[C@H](CC(N)=O)NC(=O)[C@H](C)NC(=O)[C@H](CC(C)C)NC(=O)[C@H](CCCNC(=N)N)NC(=O)[C@H](CCC(N)=O)NC(=O)[C@@H](NC(=O)[C@H](C)NC(=O)[C@@H]1CSSC[C@H](NC(=O)[C@H](CCCCN)NC(=O)[C@@H](N)CCCCNC(=O)CC[C@H](NC(=O)CCCCCCCCCCCCCCCCC(=O)O)C(=O)O)C(=O)N[C@@H](CC(N)=O)C(=O)N[C@@H]([C@@H](C)O)C(=O)N[C@@H](C)C(=O)N[C@@H]([C@@H](C)O)C(=O)N1)[C@@H](C)O)C(=O)N[C@@H](CC(C)C)C(=O)N1CCC[C@H]1C(=O)N1CCC[C@H]1C(=O)N[C@H](C(=O)N[C@@H](CC(N)=O)C(=O)N[C@H](C(=O)NCC(=O)N[C@@H](CO)C(=O)N[C@@H](CCCNC(=N)N)C(=O)N[C@H](C(=O)N[C@@H](Cc1ccc(O)cc1)C(N)=O)[C@@H](C)O)C(C)C)[C@@H](C)O) [Peptide 141 (SEQ ID NO: 141)] | 3.95 | 0.414 | 9.5 |
| K([γGlu-C18 diacid])KCNTATCATQRLANFL[Aib]HSSNNFGPILPPTNVGSETY-NH2 (disulfide 3-8; N-terminus assumed; SMILES CC[C@H](C)[C@H](NC(=O)[C@@H]1CCCN1C(=O)CNC(=O)[C@H](Cc1ccccc1)NC(=O)[C@H](CC(N)=O)NC(=O)[C@H](CC(N)=O)NC(=O)[C@H](CO)NC(=O)[C@H](CO)NC(=O)[C@H](Cc1c[nH]cn1)NC(=O)C(C)(C)NC(=O)[C@H](CC(C)C)NC(=O)[C@H](Cc1ccccc1)NC(=O)[C@H](CC(N)=O)NC(=O)[C@H](C)NC(=O)[C@H](CC(C)C)NC(=O)[C@H](CCCNC(=N)N)NC(=O)[C@H](CCC(N)=O)NC(=O)[C@@H](NC(=O)[C@H](C)NC(=O)[C@@H]1CSSC[C@H](NC(=O)[C@H](CCCCN)NC(=O)[C@@H](N)CCCCNC(=O)CC[C@H](NC(=O)CCCCCCCCCCCCCCCCC(=O)O)C(=O)O)C(=O)N[C@@H](CC(N)=O)C(=O)N[C@@H]([C@@H](C)O)C(=O)N[C@@H](C)C(=O)N[C@@H]([C@@H](C)O)C(=O)N1)[C@@H](C)O)C(=O)N[C@@H](CC(C)C)C(=O)N1CCC[C@H]1C(=O)N1CCC[C@H]1C(=O)N[C@H](C(=O)N[C@@H](CC(N)=O)C(=O)N[C@H](C(=O)NCC(=O)N[C@@H](CO)C(=O)N[C@@H](CCC(=O)O)C(=O)N[C@H](C(=O)N[C@@H](Cc1ccc(O)cc1)C(N)=O)[C@@H](C)O)C(C)C)[C@@H](C)O) [Peptide 142 (SEQ ID NO: 142)] | 2.27 | 0.73 | 3.1 |
| K([γGlu-C18 diacid])GGKCNTATCATQRLANFL[Aib]HSSNNFGPILPPTNVGSNTY-NH2 (disulfide 5-10; N-terminus assumed; SMILES CC[C@H](C)[C@H](NC(=O)[C@@H]1CCCN1C(=O)CNC(=O)[C@H](Cc1ccccc1)NC(=O)[C@H](CC(N)=O)NC(=O)[C@H](CC(N)=O)NC(=O)[C@H](CO)NC(=O)[C@H](CO)NC(=O)[C@H](Cc1c[nH]cn1)NC(=O)C(C)(C)NC(=O)[C@H](CC(C)C)NC(=O)[C@H](Cc1ccccc1)NC(=O)[C@H](CC(N)=O)NC(=O)[C@H](C)NC(=O)[C@H](CC(C)C)NC(=O)[C@H](CCCNC(=N)N)NC(=O)[C@H](CCC(N)=O)NC(=O)[C@@H](NC(=O)[C@H](C)NC(=O)[C@@H]1CSSC[C@H](NC(=O)[C@H](CCCCN)NC(=O)CNC(=O)CNC(=O)[C@@H](N)CCCCNC(=O)CC[C@H](NC(=O)CCCCCCCCCCCCCCCCC(=O)O)C(=O)O)C(=O)N[C@@H](CC(N)=O)C(=O)N[C@@H]([C@@H](C)O)C(=O)N[C@@H](C)C(=O)N[C@@H]([C@@H](C)O)C(=O)N1)[C@@H](C)O)C(=O)N[C@@H](CC(C)C)C(=O)N1CCC[C@H]1C(=O)N1CCC[C@H]1C(=O)N[C@H](C(=O)N[C@@H](CC(N)=O)C(=O)N[C@H](C(=O)NCC(=O)N[C@@H](CO)C(=O)N[C@@H](CC(N)=O)C(=O)N[C@H](C(=O)N[C@@H](Cc1ccc(O)cc1)C(N)=O)[C@@H](C)O)C(C)C)[C@@H](C)O) [Peptide 143 (SEQ ID NO: 143)] | 6.94 | 0.592 | 11.7 |
| K([γGlu-C18 diacid])KCNTATCATQRLANFL[Aib]HSSNNFGPILPPTHVGSETY-NH2 (disulfide 3-8; N-terminus assumed; SMILES CC[C@H](C)[C@H](NC(=O)[C@@H]1CCCN1C(=O)CNC(=O)[C@H](Cc1ccccc1)NC(=O)[C@H](CC(N)=O)NC(=O)[C@H](CC(N)=O)NC(=O)[C@H](CO)NC(=O)[C@H](CO)NC(=O)[C@H](Cc1c[nH]cn1)NC(=O)C(C)(C)NC(=O)[C@H](CC(C)C)NC(=O)[C@H](Cc1ccccc1)NC(=O)[C@H](CC(N)=O)NC(=O)[C@H](C)NC(=O)[C@H](CC(C)C)NC(=O)[C@H](CCCNC(=N)N)NC(=O)[C@H](CCC(N)=O)NC(=O)[C@@H](NC(=O)[C@H](C)NC(=O)[C@@H]1CSSC[C@H](NC(=O)[C@H](CCCCN)NC(=O)[C@@H](N)CCCCNC(=O)CC[C@H](NC(=O)CCCCCCCCCCCCCCCCC(=O)O)C(=O)O)C(=O)N[C@@H](CC(N)=O)C(=O)N[C@@H]([C@@H](C)O)C(=O)N[C@@H](C)C(=O)N[C@@H]([C@@H](C)O)C(=O)N1)[C@@H](C)O)C(=O)N[C@@H](CC(C)C)C(=O)N1CCC[C@H]1C(=O)N1CCC[C@H]1C(=O)N[C@H](C(=O)N[C@@H](Cc1c[nH]cn1)C(=O)N[C@H](C(=O)NCC(=O)N[C@@H](CO)C(=O)N[C@@H](CCC(=O)O)C(=O)N[C@H](C(=O)N[C@@H](Cc1ccc(O)cc1)C(N)=O)[C@@H](C)O)C(C)C)[C@@H](C)O) [Peptide 146 (SEQ ID NO: 146)] | 4.87 | 2.53 | 1.9 |
| K([γGlu-C18 diacid])CNTATCATQRLAHFL[Aib]HSSNNFGPILPPTNVGSNTY-NH2 (disulfide 2-7; N-terminus assumed; SMILES CC[C@H](C)[C@H](NC(=O)[C@@H]1CCCN1C(=O)CNC(=O)[C@H](Cc1ccccc1)NC(=O)[C@H](CC(N)=O)NC(=O)[C@H](CC(N)=O)NC(=O)[C@H](CO)NC(=O)[C@H](CO)NC(=O)[C@H](Cc1c[nH]cn1)NC(=O)C(C)(C)NC(=O)[C@H](CC(C)C)NC(=O)[C@H](Cc1ccccc1)NC(=O)[C@H](Cc1c[nH]cn1)NC(=O)[C@H](C)NC(=O)[C@H](CC(C)C)NC(=O)[C@H](CCCNC(=N)N)NC(=O)[C@H](CCC(N)=O)NC(=O)[C@@H](NC(=O)[C@H](C)NC(=O)[C@@H]1CSSC[C@H](NC(=O)[C@@H](N)CCCCNC(=O)CC[C@H](NC(=O)CCCCCCCCCCCCCCCCC(=O)O)C(=O)O)C(=O)N[C@@H](CC(N)=O)C(=O)N[C@@H]([C@@H](C)O)C(=O)N[C@@H](C)C(=O)N[C@@H]([C@@H](C)O)C(=O)N1)[C@@H](C)O)C(=O)N[C@@H](CC(C)C)C(=O)N1CCC[C@H]1C(=O)N1CCC[C@H]1C(=O)N[C@H](C(=O)N[C@@H](CC(N)=O)C(=O)N[C@H](C(=O)NCC(=O)N[C@@H](CO)C(=O)N[C@@H](CC(N)=O)C(=O)N[C@H](C(=O)N[C@@H](Cc1ccc(O)cc1)C(N)=O)[C@@H](C)O)C(C)C)[C@@H](C)O) [Peptide 144 (SEQ ID NO: 144)] | 0.725 | 0.138 | 5.3 |
